Legend:
O14-bH = biological target: T1, O14-bH; assay: two-hybrid library CCNG1;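 further: natural log of median RNA to DNA barcode read ratio; higher means stronger binding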
T1 chain: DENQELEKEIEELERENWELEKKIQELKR

O3-bH = biological target: T2, O3-bH; assay: two-hybrid library CCNG1;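 further: natural log of median RNA to DNA barcode read ratio; higher means stronger binding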
T2 chain: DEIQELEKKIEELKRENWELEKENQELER

O5-bH = biological target: T3, O5-bH; assay: two-hybrid library CCNG1;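 further: natural log of median RNA to DNA barcode read ratio; higher means stronger binding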
T3 chain: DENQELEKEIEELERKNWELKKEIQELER

O13-bH = biological target: T4, O13-bH; assay: two-hybrid library CCNG1;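 further: natural log of median RNA to DNA barcode read ratio; higher means stronger binding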
T4 chain: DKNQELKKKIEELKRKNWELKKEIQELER

O16-bH = biological target: T5, O16-bH; assay: two-hybrid library CCNG1
T5 chain: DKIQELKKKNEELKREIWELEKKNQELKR

O10-bH = biological target: T6, O10-bH; assay: two-hybrid library CCNG1; conditions: mean of both orientations
T6 chain: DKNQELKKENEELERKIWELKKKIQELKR

O6-bH = biological target: T7, O6-bH; assay: two-hybrid library CCNG1
T7 chain: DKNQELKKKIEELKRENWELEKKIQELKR

O8-bH = biological target: T8, O8-bH; assay: two-hybrid library CCNG1
T8 chain: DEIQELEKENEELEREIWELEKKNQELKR

O7-bH = biological target: T9, O7-bH; assay: two-hybrid library CCNG1
T9 chain: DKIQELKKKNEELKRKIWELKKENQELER

O11-bH = biological target: T10, O11-bH; assay: two-hybrid library CCNG1
T10 chain: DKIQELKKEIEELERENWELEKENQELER

O4-bH = biological target: T11, O4-bH; assay: two-hybrid library CCNG1
T11 chain: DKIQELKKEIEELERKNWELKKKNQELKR

O2-bH = biological target: T12, O2-bH; assay: two-hybrid library CCNG1
T12 chain: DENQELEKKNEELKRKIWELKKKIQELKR

O15-bH = biological target: T13, O15-bH; assay: two-hybrid library CCNG1
T13 chain: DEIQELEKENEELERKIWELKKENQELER

O12-bH = biological target: T14, O12-bH; assay: two-hybrid library CCNG1
T14 chain: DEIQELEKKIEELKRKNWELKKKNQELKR

O9-bH = biological target: T15, O9-bH; assay: two-hybrid library CCNG1; conditions: mean of both orientations
T15 chain: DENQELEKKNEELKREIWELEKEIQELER

4H406-AA = biological target: T16, 4H406-AA; assay: two-hybrid library CCmax; conditions: mean of both orientations
T16 chain: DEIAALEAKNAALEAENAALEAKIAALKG

4H2592-AA = biological target: T17, 4H2592-AA; assay: two-hybrid library CCmax; conditions: mean of both orientations
T17 chain: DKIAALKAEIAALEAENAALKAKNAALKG

4H347-AA = biological target: T18, 4H347-AA; assay: two-hybrid library CCmax; conditions: mean of both orientations
T18 chain: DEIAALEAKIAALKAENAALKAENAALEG

4H3381-AA = biological target: T19, 4H3381-AA; assay: two-hybrid library CCmax; conditions: mean of both orientations
T19 chain: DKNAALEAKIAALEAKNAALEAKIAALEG

4H3493-AA = biological target: T20, 4H3493-AA; assay: two-hybrid library CCmax; conditions: mean of both orientations
T20 chain: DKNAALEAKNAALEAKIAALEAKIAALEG

4H2774-AA = biological target: T21, 4H2774-AA; assay: two-hybrid library CCmax; conditions: mean of both orientations
T21 chain: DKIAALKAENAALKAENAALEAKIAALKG

4H2219-AA = biological target: T22, 4H2219-AA; assay: two-hybrid library CCmax; conditions: mean of both orientations
T22 chain: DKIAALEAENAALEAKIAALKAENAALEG

4H2504-AA = biological target: T23, 4H2504-AA; assay: two-hybrid library CCmax
T23 chain: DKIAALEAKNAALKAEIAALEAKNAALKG

4H3340-AA = biological target: T24, 4H3340-AA; assay: two-hybrid library CCmax; conditions: mean of both orientations
T24 chain: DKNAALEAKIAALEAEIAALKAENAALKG

4H2611-AA = biological target: T25, 4H2611-AA; assay: two-hybrid library CCmax; conditions: mean of both orientations
T25 chain: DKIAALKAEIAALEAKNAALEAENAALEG

4H688-AA = biological target: T26, 4H688-AA; assay: two-hybrid library CCmax; conditions: mean of both orientations
T26 chain: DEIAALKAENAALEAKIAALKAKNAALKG

4H3001-AA = biological target: T27, 4H3001-AA; assay: two-hybrid library CCmax; conditions: mean of both orientations
T27 chain: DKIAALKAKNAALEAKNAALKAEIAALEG

4H376-AA = biological target: T28, 4H376-AA; assay: two-hybrid library CCmax; conditions: mean of both orientations
T28 chain: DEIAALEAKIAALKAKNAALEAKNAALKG

4H1738-AA = biological target: T29, 4H1738-AA; assay: two-hybrid library CCmax
T29 chain: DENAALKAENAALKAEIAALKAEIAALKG

4H963-AA = biological target: T30, 4H963-AA; assay: two-hybrid library CCmax; conditions: mean of both orientations
T30 chain: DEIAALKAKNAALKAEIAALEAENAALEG

4H249-AA = biological target: T31, 4H249-AA; assay: two-hybrid library CCmax; conditions: mean of both orientations
T31 chain: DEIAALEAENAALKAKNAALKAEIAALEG

Work on DKNQELKKENEELERKIWELKKKIQELKR [O10-bH] yielded an interaction score (O14-bH) of -1.44, an interaction score (O3-bH) of 1.13 and an interaction score (O5-bH) of 0.349. For the same binder, the interaction score (O13-bH) was 0.177, the interaction score (O16-bH) was 0.522 and the interaction score (O10-bH) was 0.392. For the same binder, the interaction score (O6-bH) was 0.0839, the interaction score (O8-bH) was -0.465 and the interaction score (O7-bH) was 0.671. The interaction score (O11-bH) was -0.919, the interaction score (O4-bH) was 0.524 and the interaction score (O2-bH) was 0.103. The interaction score (O15-bH) was -0.726, the interaction score (O12-bH) was -1.91 and the interaction score (O9-bH) was 0.317.

DENAALKAENAALKAEIAALKAEIAALKG [4H1738-AA] showed an interaction score (4H406-AA) of -1.49, an interaction score (4H2592-AA) of -1.14 and an interaction score (4H347-AA) of -1.67. It also gave an interaction score (4H3381-AA) of -1.45, an interaction score (4H3493-AA) of -1.11 and an interaction score (4H2774-AA) of -1.15. The interaction score (4H2219-AA) was -1.76, the interaction score (4H2504-AA) was -1.96 and the interaction score (4H3340-AA) was -1.31. For the same binder, the interaction score (4H2611-AA) was -1.52, the interaction score (4H688-AA) was -1.24 and the interaction score (4H3001-AA) was -1.39. For the same binder, the interaction score (4H376-AA) was -1.75, the interaction score (4H1738-AA) was 1.65 and the interaction score (4H963-AA) was -1.8. For the same binder, the interaction score (4H249-AA) was -1.2.

Reference: PMC10397247
